# Reference: the DeepSol protein solubility set
# Assay: soluble on expression in E. coli; label from the status in PepcDB or PDB records
row,Sequence,soluble on expression in E. coli
1,MMTESHGYLSNNLPVKIINDIIYATQLVEDLVLGKIKIVDFLKSYNNFYCWLGFDELPQSEKIKFLSYLNILSIHKEIQDETVNRVYTD,not soluble
2,GAAASIQTTVNTLSERISSKLEQEANASAQTKCDIEIGNFYIRQNHGCNLTVKNMCSADADAQLDAVLSAATETYSGLTPEQKAYVPAMFTAALNIQTSVNTVVRDFENYVKQTCNSSAVVDNKLKIQNVIIDECYGAPGSPTNLEFINTGSSKGNCAIKALMQLTTKATTQIAPKQVAGTGVQ,soluble
3,MCMRRTLYRLMIELTNGRFTSYILRKFAQSRLSSIIIPSYVKVFQINQDEMEKGLKEYRTLHELFTRKLKEGKRSIDTDASSIVSPVDGVFADYGPIEDAKTFDIKGKRYSIVDMLGNEERAQRYAGGTYMVIYLSPSHYHRIHSPLSGSVTERFVLGRKSYPVNAAGMEYGKEPLSKNYRSVTEVNSDGEHMALVKVGAMFVNSIELLHERDTVQKGEEMAYFTFGSTVVLLFEKDMIEVVQELKSGQELRLGEKIATRLAHKMAGDPLEHHHHHH,soluble
4,MKNLPISIGRIVMQGGHVNFQDQFIQPNYRAYLTDLAGRIGPLNPRKTGEVDIRGAVDKTAPLKISGSVDAFGRELNLDITASAKGIDMPTFSPYSGKYIGYAIEKGKLSVDVHYHVEHGELTAENSIFLDQLTFGEKIESPDAVSIPVNLALALLEHHHHHH,not soluble
5,MGSDKIHHHHHHMVEIKKICCIGAGYVGGPTCSVIAHMCPEIRVTVVDVNEARINAWNSPTLPIYEPGLKEVVESCRGKNLFFSTNIDDAIREADLVFISVNTPTKTYGMGKGRAADLKYIEACARRIVQNSNGYKIVTEKSTVPVRAAESIRRIFDANTKPNLNLQVLSNPEFLAEGTAIKDLKNPDRVLIGGDETPEGQKAVRALCAVYEHWVPKEKILTTNTWSSELSKLAANAFLAQRISSINSISALCEATGADVEEVATAIGMDQRIGNKFLKASVGFGGSCFQKDVLNLVYLCEALNLPEVARYWQQVIDMNDYQRRRFASRIIDSLFNTVTDKKIAILGFAFKKDTGDTRESSSIYISKYLMDEGAHLHIYDPKVPREQIVVDLSHPGVSADDQVSRLVTISKDPYEACDGAHALVICTEWDMFKELDYERIHKKMLKPAFIFDGRRVLDGLHSELQTIGFQIETIGKKVSSKRIPYTPGEIPKFSLQDPPNKKPKV,not soluble
6,LREQPQQNECQLERLDALEPDNRIESEGGLIETWNPNNKQFRCAGVALSRATLQRNALRRPYYSNAPQEIFIQQGNGYFGMVFPGCPETFEEPQESEQGEGRRYRDRHQKVNRFREGDIIAVPTGIVFWMYNDQDTPVIAVSLTDIRSSNNQLDQMPRRFYLAGNHEQEFLQYQHQQGGKQEQENEGNNIFSGFKRDFLEDAFNVNRHIVDRLQGRNEDEEKGAIVKVKGGLSIISPPEKQARHQRGSRQEEDEDEEKQPRHQRGSRQEEEEDEDEERQPRHQRRRGEEEEEDKKERGGSQKGKSRRQGDNGLEETVCTAKLRLNIGPSSSPDIYNPEAGRIKTVTSLDLPVLRWLKLSAEHGSLHKNAMFVPHYNLNANSIIYALKGRARLQVVNCNGNTVFDGELEAGRALTVPQNYAVAAKSLSDRFSYVAFKTNDRAGIARLAGTSSVINNLPLDVVAATFNLQRNEARQLKSNNPFKFLVPARESENRASA,soluble
7,MQSVTPTSQYLKALNEGSHQPDDVQKEAVSRLEIIYQELINSRPPAPRTSGLMARVGKLWGKREDTKHTPVRGLYMWGGVGRGKTWLMDLFYQSLPGERKQRLHFHRFMLRVHEELTALQGQTDPLEIIADRFKAETDVLCFDEFFVSDITDAMLLGGLMKALFTRGITLVATSNIPPDELYRNGLQRARFLPAIDAIKQHCDVMNVDAGVDYRLRTLTQAHLWLSPLNDETRAQMDKLWLALAGVKRENSPTLEINHRPLATMGVENQTLAVSFTTLCVDARSQHDYIALSRLFHTVMLFDVPVMTRLMESEARRFIALVDEFYERHVKLVVSAEVPLYEIYQGERLKFEFQRCLSRLQEMQSEEYLKREHLAGLEHHHHHH,soluble
8,MQTLERFFLFVTGDQPERFEKANSSCADSVILDLENAVSSEKKIIARENALNFMSNDEKVLIAVRAKIVITSRLAGSYPSVDGITTEFMKNELTIQNAIHSCKMGFSGKVCIHPPQISHVNRAFSYLKQEIEWVPQIMRLAQYPHGAFSHEGQMVDKPLLEKAKRILAHSILEHHHHHH,not soluble
9,MAHHHHHHMEHVNANEKNGYLASEKNELTKNKVEEHTYDYDYVVIGGGPGGMASAKEAAAHGARVLLFDYVKPSSQGTKWGIGGTCVNVGCVPKKLMHYAGHMGSIFKLDSKAYGWKFDNLKHDWKKLVTTVQSHIRSLNFSYMTGLRSSKVKYINGLAKLKDKNTVSYYLKGDLSKEETVTGKYILIATGCRPHIPDDVEGAKELSITSDDIFSLKKDPGKTLVVGASYVALECSGFLNSLGYDVTVAVRSIVLRGFDQQCAVKVKLYMEEQGVMFKNGILPKKLTKMDDKILVEFSDKTSELYDTVLYAIGRKGDIDGLNLESLNMNVNKSNNKIIADHLSCTNIPSIFAVGDVAENVPELAPVAIKAGEILARRLFKDSDEIMDYSYIPTSIYTPIEYGACGYSEEKAYELYGKSNVEVFLQEFNNLEISAVHRQKHIRAQKDEYDLDVSSTCLAKLVCLKNEDNRVIGFHYVGPNAGEVTQGMALALRLKVKKKDFDNCIGIHPTDAESFMNLFVTISSGLSYAAKG,not soluble
10,MGHHHHHHSHMPVTEKDLAEDAPWKKIQQNTFTRWCNEHLKCVNKRIGNLQTDLSDGLRLIALLEVLSQKRMYRKYHQRPTFRQMQLENVSVALEFLDRESIKLVSIDSKAIVDGNLKLILGLVWTLILHYSISMPVWEDEGDDDAKKQTPKQRLLGWIQNKIPYLPITNFNQNWQDGKALGALVDSCAPGLCPDWESWDPQKPVDNAREAMQQADDWLGVPQVITPEEIIHPDVDEHSVMTYLSQFPKAKLKPGAPLKPKL,soluble
11,MKQYLELMQKVLDEGTQKNDRTGTGTLSIFGHQMRFNLQDGFPLVTTKRCHLRSIIHELLWFLQGDTNIAYLHENNVTIWDEWADENGDLGPVYGKQWRAWPTPDGRHIDQITTVLNQLKNDPDSRRIIVSAWNVGELDKMACAPSHAFFQFYVADGKLSCQLYQRSCDVFLGLPFNIASYALLVHMMAQQCDLEVGDFVWTGGDTHLYSNHMDQTHLQLSREPRPLPKLIIKRKPESIFDYRFEDFEIEGYDPHPGIKAPVAI,soluble
12,MGSDKIHHHHHHMTEEINYFWLNCGYNRWNHNEPLVGQTALFESGAHFNPTQGYRAFKKAKAGDQVIFYQVQTDSGLLGIGEIISVQSGAQNKIRVEFKFKETLKPLTTDYLKRSETLDFRMSNMRETLFNQIRESEFELIVSLGKGKSKIPRYFLLAETEAFEPGKNYTIFTHTFNGIKRNGYHFYTQLEVGDNIIIYNKYQNQSVIGIGEVSKHIHEKPPIPGRTNSTAIEIFYEKDIKPISLGHLNKHPKLKNLYFLQENAKQSIASMSQAQYDAILDMSMNNGIKHPFETVKKAELSTQNAEDDSLKPFVLLVVEQKGEGLKAAEELLQKTNANPVITSGHPDFTEDMLYGKYLPNESGALYYREGFITHLMPKKDKSYLVIDNFNRIDVDIFQTYINVLEGYEVTLPRYNKDGSMIKWSKNKDSFYHFNPNWHIVGITYDSIEKIKQKYSSQFLKYTRIVKVNHD,not soluble
13,MSYLDFNSMLNNLYTKFGDSSFENVFYLPEPKISKKSTRIDWININVFLKSVNRSIEHFINYLKNDRKISTTYQNNILIIQGKYRKEDINKMMLEYVNKFCKCPICSSYDTLLVKDGTIRKEKIICSKCKSTTFCS,not soluble
14,MGSDKIHHHHHHMNQMQQWKPDFLGEGYQNLTIELGDDPDNETDVVTTVVRYNPDNHADESFAARPALLWVHGMTDYFFHTEFAEFFHNAGFAVYGIDLRKCGRSYRPGQQWHYTSDLAHYFPDLTAAAEVISSTHPELVPVAHSTGGLIVPLWMSQMRTSNPAAIEKIPALVLNSPWLDMMYPPLFIKLITPMVRVLGKRSPTTIIPGGGLGAYGKSIHKNFYGEWDFDTTIKPVEGHKKSIGWLRAVMAGQAEIHHDHVNVGVDVLTLCSNKSWLKSEYTEDTNTSDAVLDVKHIQKWAPHLSSPSSRVDVEIIDNARHDIFLSRKPARDHASEVLNNWLQSKLSSLKPSQ,not soluble
15,MAGVAEFNDKGELLLPKNYREWVMVGTQVTPNELNDGKAPFTEIRTVYVDPESYAHWKKTGEFRDGTVTVKELVSVGDRKGPGSGNGYFMGDYIGLEASVKDSQRFANEPGNWAFYIFYVPDTPLVAAAKNLPTAECAACHKENAKTDMVFTQFYPVLRAAKATGESGVVAPKKLAAALEHHHHHH,soluble
